B1: Nuclear distribution protein nudE homolog 1 (Homo sapiens), Q9NXR1 (parent)
chain: MEDSGKTFSSEEEEANYWKDLAMTYKQRAENTQEELREFQEGSREYEAELETQLQQIETRNRDLLSENNRLRMELETIKEKFEVQHSEGYRQISALEDDLAQTKAIKDQLQKYIRELEQANDDLERAKRATIMSLEDFEQRLNQAIERNAFLESELDEKENLLESVQRLKDEARDLRQELAVQQKQEKPRTPMPSSVEAERTDTAVQATGSVPSTPIAHRGPSSSLNTPGSFRRGLDDSTGGTPLTPAARISALNIVGDLLRKVGALESKLASCRNLVYDQSPNRTGGPASGRSSKNRDGGERRPSSTSVPLGDKGLDTSCRWLSKSTTRSSSSC
B2: Nuclear distribution protein nudE homolog 1 (Homo sapiens), Q9NXR1 (parent)
chain: B1 chain
partner: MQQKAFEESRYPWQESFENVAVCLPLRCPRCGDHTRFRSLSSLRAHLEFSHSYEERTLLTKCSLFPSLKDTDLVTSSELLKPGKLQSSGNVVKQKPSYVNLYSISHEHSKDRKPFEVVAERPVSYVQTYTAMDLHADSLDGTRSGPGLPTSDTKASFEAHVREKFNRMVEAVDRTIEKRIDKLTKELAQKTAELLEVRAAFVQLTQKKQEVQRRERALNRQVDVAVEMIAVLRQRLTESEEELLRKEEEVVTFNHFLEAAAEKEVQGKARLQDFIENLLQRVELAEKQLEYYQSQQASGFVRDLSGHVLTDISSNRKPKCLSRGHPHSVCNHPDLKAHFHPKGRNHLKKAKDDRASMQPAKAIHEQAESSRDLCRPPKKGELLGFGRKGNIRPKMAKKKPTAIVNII

Variants of: B1
Settings: with cdk1_human CDK1, P06493
cdk1_human CDK1, P06493, sequence (P06493 whole entry, looked up): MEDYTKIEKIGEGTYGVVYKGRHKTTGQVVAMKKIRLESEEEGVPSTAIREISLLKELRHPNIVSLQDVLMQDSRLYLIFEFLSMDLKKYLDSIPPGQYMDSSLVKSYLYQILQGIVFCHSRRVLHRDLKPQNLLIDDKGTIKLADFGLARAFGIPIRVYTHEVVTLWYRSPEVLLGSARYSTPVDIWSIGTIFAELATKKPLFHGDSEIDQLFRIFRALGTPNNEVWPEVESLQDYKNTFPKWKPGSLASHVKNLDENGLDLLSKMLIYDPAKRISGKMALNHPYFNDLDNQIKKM

effect of a mutation on the interaction | Variant
decreasing interaction | MEDSGKTFSSEEEEANYWKDLAMTYKQRAENTQEELREFQEGSREYEAELETQLQQIETRNRDLLSENNRLRMELETIKEKFEVQHSEGYRQISALEDDLAQTKAIKDQLQKYIRELEQANDDLERAKRATIMSLEDFEQRLNQAIERNAFLESELDEKENLLESVQRLKDEARDLRQELAVQQKQEKPRVPMPSSVEAERTDTAVQATGSVPSVPIAHRGPSSSLNVPGSFRRGLDDSTGGVPLVPAARISALNIVGDLLRKVGALESKLASCRNLVYDQVPNRTGGPASGRSSKNRDGGERRPSSTSVPLGDKGLDTSCRWLSKSTTRSSSSC [T191V;T215V;T228V;T243V;T246V;S282V]

Variants of: B2
Settings: with zn365_human ZNF365, Q70YC5

effect of a mutation on the interaction | Variant
decreasing interaction | MEDSGKTFSSEEEEANYWKDLAMTYKQRAENTQEELREFQEGSREYEAELETQLQQIETRNRDLLSENNRLRMELETIKEKFEVQHSEGYRQISALEDDLAQTKAIKDQLQKYIRELEQANDDLERAKRATIMSLEDFEQRLNQAIERNAFLESELDEKENLLESVQRLKDEARDLRQELAVQQKQEKPREPMPSSVEAERTDTAVQATGSVPSEPIAHRGPSSSLNEPGSFRRGLDDSTGGEPLEPAARISALNIVGDLLRKVGALESKLASCRNLVYDQEPNRTGGPASGRSSKNRDGGERRPSSTSVPLGDKGLDTSCRWLSKSTTRSSSSC [T191E;T215E;T228E;T243E;T246E;S282E]

Variants of: B2
Settings: with zn365_human ZNF365, Q70YC5
Remark: another data set of the same source

effect of a mutation on the interaction | Variant
decreasing interaction | MEDSGKTFSSEEEEANYWKDLAMTYKQRAENTQEELREFQEGSREYEAELETQLQQIETRNRDLLSENNRLRMELETIKEKFEVQHSEGYRQISALEDDLAQTKAIKDQLQKYIRELEQANDDLERAKRATIMSLEDFEQRLNQAIERNAFLESELDEKENLLESVQRLKDEARDLRQELAVQQKQEKPREPMPSSVEAERTDTAVQATGSVPSEPIAHRGPSSSLNEPGSFRRGLDDSTGGEPLEPAARISALNIVGDLLRKVGALESKLASCRNLVYDQEPNRTGGPASGRSSKNRDGGERRPSSTSVPLGDKGLDTSCRWLSKSTTRSSSSC [T191E;T215E;T228E;T243E;T246E;S282E]

Reference: IntAct's records for PubMed 16682949
